Experimental findings from article PMC5114622, “In vivo protein interaction network analysis reveals porin-localized antibiotic inactivation in Acinetobacter baumannii strain AB5075” (Nature Communications, 2016) are described below.

Several values for one entry are separate records, joined by “and”; a condition that tells them apart may be missing. Equal values may be shown once.

A word on the stoichiometry N: it is the number of molecules, sites or subunits per partner or assembly.

This data set deals with the molecule itself. Briefly: cross-linking + co-IP; AB5075-pMMB-oxa23 cells cross-linked with BDP-NHP, lysates denatured with SDS, anti-HA agarose IP; immunoblots with anti-HA, anti-OmpA, streptavidin; DMSO-treated control. On the technique in general: In western blotting, separated proteins are transferred to a membrane and probed.

B1: Oxa23-HA-Strep (enzyme)
chain: CTVQHNLINETPSQIVQGHNQVIHQYFDEKNTSGVLVIQTDKKINLYGNALSRANTEYVPASTFKMLNALIGLENQKTDINEIFKWKGEKRSFTAWEKDMTLGEAMKLSAVPVYQELARRIGLDLMQKEVKRIGFGNAEIGQQVDNFWLVGPLKVTPIQEVEFVSQLAHTQLPFSEKVQANVKNMLLLEESNGYKIFGKTGWAMDIKPQVGWLTGWVEQPDGKIVAFALNMEMRSEMPASIRNELLMKSLKQLNII
notes: Oxa-23 of Acinetobacter baumannii AB5075; oxa-23 gene with the TAA stop codon omitted so that the HA-Strep tag of the pMMB vector follows; I take the same for this construct and that the signal peptide is cut on export; also called Oxa-23 with C-terminal HA-Strep tags; tagged Oxa-23; source: A. baumannii AB5075 WT cells transformed with pMMB-oxa23-HA-Strep (AB5075-pMMB-oxa23), in lysate; not …
On to B1, for which the “stoichiometry N” value was 2 and 4.
